Patent publication US20180230233A1 (Genentech, published 2018)

Biological target: T1, recombinant His-tagged human tryptase beta 1 monomer (human, UniProt Q15661 31-275)
T1 construct: also called His6-tagged tryptase monomer; human tryptase b1 monomer
Experiment: SPR, tryptase beta 1 monomer
Method: (§1) The assay can use a BIAcore® T200 or an equivalent device. Briefly, BIAcore® Series S CM5 sensor chips (or equivalent sensor chips) are immobilized with monoclonal mouse anti-human IgG (Fc) antibody and anti-tryptase antibodies are subsequently captured on the flow cell. Serial 3-fold dilutions of the human tryptase beta 1 monomer are injected at a flow rate of 30 μl/min. Each sample is analyzed with 3 min association and 10 min dissociation. The assay is performed at 25° C. After each injection, the chip is regenerated using 3 M MgCl₂. Binding response is corrected by subtracting the response units (RU) from a flow cell capturing an irrelevant IgG at similar density. A 1:1 Languir model of simultaneous fitting of kₒₙ and koff is used for kinetics analysis.
(§2) In this experiment, all the humanized variants were expressed as IgG by transient transfection of 293 cells. IgG was purified with protein G affinity chromatography. The affinity of each variant for recombinant His-tagged human tryptase beta 1 monomer (SEQ ID NO: 128) was determined by SPR analysis using a BIAcore® T200. BIAcore® Series S CM5 sensor chips were immobilized with monoclonal mouse anti-human IgG (Fc) antibody (Human antibody capture kit from GE Healthcare) and anti-tryptase variants were subsequently captured on each flow cell. Serial 3-fold dilutions of the human tryptase beta 1 monomer were injected at a flow rate of 30 μl/min. Each sample was analyzed with 3 min association and 10 min dissociation. After each injection, the chip was regenerated using 3 M MgCl₂. Binding response was corrected by subtracting the response units (RU) from a flow cell capturing an irrelevant IgG at similar density. A 1:1 Languir model of simultaneous fitting of kₒₙ and koff was used for kinetics analysis.

T1 sequence (Q15661 other isoform, or with tags, fused parts or gaps): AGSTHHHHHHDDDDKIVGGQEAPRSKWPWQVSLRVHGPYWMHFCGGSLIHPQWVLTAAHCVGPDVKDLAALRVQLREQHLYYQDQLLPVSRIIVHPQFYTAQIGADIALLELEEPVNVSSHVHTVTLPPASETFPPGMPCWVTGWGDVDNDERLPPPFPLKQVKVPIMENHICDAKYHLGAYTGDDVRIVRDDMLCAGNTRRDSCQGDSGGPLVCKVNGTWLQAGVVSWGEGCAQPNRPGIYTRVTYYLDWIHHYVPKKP

KD as fold increase compared to hu31A.v11 wild type [fold]	Binder
2410	hu31A.v11 W100L (antibody, name in Kabat numbering, V domains shown, also called W100L variant) VH: EVQLVESGGGLVQPGGSLRLSCAASGFTFSDYGMVWVRQAPGKGLEWVAFISSGSSTVYYADTMKGRFTISRDNSKNTLYLQMNSLRAEDTAVYYCTRRNYDDLYFDVWGQGTLVTVSS VL: DIQMTQSPSSLSASVGDRVTITCSASSSVTYMYWYQQKPGKSPKPWIYRTSDLASGVPSRFSGSGSGTDFTLTISSLQPEDFATYYCQHYHSYPLTFGQGTKVEIK
234	hu31A.v11 W100Y (antibody, name in Kabat numbering, V domains shown, Position 100 is Kabat numbering; also called W100Y variant) VH: EVQLVESGGGLVQPGGSLRLSCAASGFTFSDYGMVWVRQAPGKGLEWVAFISSGSSTVYYADTMKGRFTISRDNSKNTLYLQMNSLRAEDTAVYYCTRRNYDDYYFDVWGQGTLVTVSS VL: DIQMTQSPSSLSASVGDRVTITCSASSSVTYMYWYQQKPGKSPKPWIYRTSDLASGVPSRFSGSGSGTDFTLTISSLQPEDFATYYCQHYHSYPLTFGQGTKVEIK
54	hu31A.v11 W100R (antibody, name in Kabat numbering, V domains shown, also called W100R variant) VH: EVQLVESGGGLVQPGGSLRLSCAASGFTFSDYGMVWVRQAPGKGLEWVAFISSGSSTVYYADTMKGRFTISRDNSKNTLYLQMNSLRAEDTAVYYCTRRNYDDRYFDVWGQGTLVTVSS VL: DIQMTQSPSSLSASVGDRVTITCSASSSVTYMYWYQQKPGKSPKPWIYRTSDLASGVPSRFSGSGSGTDFTLTISSLQPEDFATYYCQHYHSYPLTFGQGTKVEIK
821	hu31A.v11 W100V (antibody, name in Kabat numbering, V domains shown, Position 100 is Kabat numbering; also called W100V variant) VH: EVQLVESGGGLVQPGGSLRLSCAASGFTFSDYGMVWVRQAPGKGLEWVAFISSGSSTVYYADTMKGRFTISRDNSKNTLYLQMNSLRAEDTAVYYCTRRNYDDVYFDVWGQGTLVTVSS VL: DIQMTQSPSSLSASVGDRVTITCSASSSVTYMYWYQQKPGKSPKPWIYRTSDLASGVPSRFSGSGSGTDFTLTISSLQPEDFATYYCQHYHSYPLTFGQGTKVEIK

Biological target: recombinant human tryptase beta 1 tetramer (wild type, active) (human, UniProt Q15661 31-275)
Sequence (Q15661 31-275): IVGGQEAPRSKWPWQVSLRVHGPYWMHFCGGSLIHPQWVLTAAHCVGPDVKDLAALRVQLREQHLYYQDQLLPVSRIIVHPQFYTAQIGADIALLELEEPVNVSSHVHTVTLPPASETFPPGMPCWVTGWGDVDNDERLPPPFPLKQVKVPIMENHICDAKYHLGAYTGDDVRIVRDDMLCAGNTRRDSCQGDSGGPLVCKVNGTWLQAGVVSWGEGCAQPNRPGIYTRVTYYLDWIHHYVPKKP
Experiment: cell-based or functional assay

IC50 as fold increase compared to hu31A.v11 wild type [fold]	Binder
3.46	hu31A.v11 W100Y (antibody, name in Kabat numbering, V domains shown, Position 100 is Kabat numbering; also called W100Y variant) VH: EVQLVESGGGLVQPGGSLRLSCAASGFTFSDYGMVWVRQAPGKGLEWVAFISSGSSTVYYADTMKGRFTISRDNSKNTLYLQMNSLRAEDTAVYYCTRRNYDDYYFDVWGQGTLVTVSS VL: DIQMTQSPSSLSASVGDRVTITCSASSSVTYMYWYQQKPGKSPKPWIYRTSDLASGVPSRFSGSGSGTDFTLTISSLQPEDFATYYCQHYHSYPLTFGQGTKVEIK

Biological target: T1, recombinant His-tagged human tryptase …
Experiment: SPR (BIAcore T200); IgG1 captured by anti-human Fc, His-tagged monomer injected
Method: as §1, §2

Kd [nM]	Binder
0.26	huE104.v10 IgG1 (chimeric light chain) (antibody, V domains shown) VH: EVQLVESGPGLVKPSETLSLTCTVSRFSLIGYAITWIRQPPGKGLEWIGGISSAATTFYSSWAKSRVTISRDTSKNQVSLKLSSVTAADTAVYYCARDPRGYGAALDRLDLWGQGTLVTVSS VL: AAVLTQTPASVSAAVGGTVSISCQSIKSVYNNRLGWYQQKPGQPPKLLIYETSILTSGVPSRFKGSGSETQFTLTISDVQADDAATYFCAGGFDRSGDTTFGGGTEVVVK
0.94	hu31A.v9 IgG1 (antibody, V domains shown, also called v9 (of hu31A)) VH: EVQLVESGGGLVQPGGSLRLSCAASGFTFSSFGMHWVRQAPGKGLEWVAFISSGSSTVYYADTMKGRFTISRDNSKNTLYLQMNSLRAEDTAVVYCARRDNYDWYFDVWGQGTLVTVSS VL: DIQLTQSPSSLSASVGDRVTITCSASSSVTYMYWYQQKPGKSPKPWIYRTSDLASGVPSRFSGSGSGTDYTLTISSLQPEDFATYYCQHYHSYPLTFGQGTKVEIK
1.19	hu31A.v10 IgG1 (antibody, V domains shown, also called v10 (of hu31A)) VH: EVQLVESGGGLVQPGGSLRLSCAASGFTFSDYGMVWVRQAPGKGLEWVAFISSGSSTVYYADTMKGRFTISRDNSKNTLYLQMNSLRAEDTAVYYCTRRNYDDWYFDVWGQGTLVTVSS VL: DIQMTQSPSSLSASVGDRVTITCSASSSVTYMYWYQQKPGKAPKLLIYRTSDLASGVPSRFSGSGSGTDFTLTISSLQPEDFATYYCQHYHSYPLTFGQGTKVEIK
0.43	hu31A.v12 IgG1 (antibody, V domains shown, also called v12 (of hu31A)) VH: EVQLVESGGGLVQPGGSLRLSCAASGFTFSDYGMVWVRQAPGKGLEWVAFISSGSSTVYYADTMKGRFTISRDNSKNTLYLQMNSLRAEDTAVYYCTRRNYDDWYFDVWGQGTLVTVSS VL: DIQLTQSPSSLSASVGDRVTITCSASSSVTYMYWYQQKPGKSPKPWIYRTSDLASGVPSRFSGSGSGTDYTLTISSLQPEDFATYYCQHYHSYPLTFGQGTKVEIK
9.65	hu31A.v13 IgG1 (antibody, V domains shown) VH: EVQLVESGGGLVQPGGSLRLSCAASGFTFSDYGMVWVRQAPGKGLEWVAFISSGSSTVYYADTMKGRFTISRDNSKNTLYLQMNSLRAEDTAVVYCTRRDNYDWYFDVWGQGTLVTVSS VL: DIQMTQSPSSLSASVGDRVTITCSASSSVTYMYWYQQKPGKAPKLLIYRTSDLASGVPSRFSGSGSGTDFTLTISSLQPEDFATYYCQHYHSYPLTFGQGTKVEIK
1.32	hu31A.v15 IgG1 (antibody, V domains shown) VH: EVQLVESGGGLVQPGGSLRLSCAASGFTFSDYGMVWVRQAPGKGLEWVAFISSGSSTVYYADTMKGRFTISRDNSKNTLYLQMNSLRAEDTAVVYCTRRDNYDWYFDVWGQGTLVTVSS VL: DIQLTQSPSSLSASVGDRVTITCSASSSVTYMYWYQQKPGKSPKPWIYRTSDLASGVPSRFSGSGSGTDYTLTISSLQPEDFATYYCQHYHSYPLTFGQGTKVEIK
0.24	huE104.v9 IgG1 (chimeric heavy chain) (antibody, V domains shown, also called E104.v9 chimeric clone) VH: QSLEESGGGLFKPTDTLTLTCTVSRFSLIGYAITWVRQSPENGLEWIGGISSAATTFYSSWAKSRSTITRNTNENTVTLKMTSLTAADTATYFCARDPRGYGAALDRLDLWGQGTLVTVSS VL: DIQMTQSPSSLSASVGDRVTITCQSIKSVYNNRLGWYQQKPGKAPKLLIYETSILTSGVPSRFSGSGSGTDFTLTISSLQPEDFATYYCAGGFDRSGDTTFGQGTKVEIK
0.44	huE104.v4 IgG1 (antibody, V domains shown) VH: EVQLVESGGGLVQPGGSLRLSCAVSRFSLIGYAITWVRQAPGKGLEWIGGISSAATTFYSSWAKSRSTISRDTSKNTVYLQMNSLRAEDTAVYFCARDPRGYGAALDRLDLWGQGTLVTVSS VL: DIQMTQSPSSLSASVGDRVTITCQSIKSVYNNRLGWYQQKPGKAPKLLIYETSILTSGVPSRFSGSGSGTDFTLTISSLQPEDFATYYCAGGFDRSGDTTFGQGTKVEIK
0.21	huE104.v3 IgG1 (antibody, V domains shown) VH: EVQLVESGPGLVKPSETLSLTCTVSRFSLIGYAITWVRQPPGKGLEWIGGISSAATTFYSSWAKSRSTISRDTSKNQVSLKLSSVTAADTAVYFCARDPRGYGAALDRLDLWGQGTLVTVSS VL: DIQMTQSPSSLSASVGDRVTITCQSIKSVYNNRLGWYQQKPGKAPKLLIYETSILTSGVPSRFSGSGSGTDFTLTISSLQPEDFATYYCAGGFDRSGDTTFGQGTKVEIK
0.25	huE104.v7 IgG1 (antibody, V domains shown) VH: EVQLVESGPGLVKPSETLSLTCTVSRFSLIGYAITWVRQPPGKGLEWIGGISSAATTFYSSWAKSRSTISRDTSKNQVSLKLSSVTAADTAVYFCARDPRGYGAALDRLDLWGQGTLVTVSS VL: DAQLTQSPSSLSASVGDRVTITCQSIKSVYNNRLGWYQQKPGKPPKLLIYETSILTSGVPSRFSGSGSETDFTLTISSLQPEDFATYFCAGGFDRSGDTTFGQGTKVEIK
0.32	huE104.v11 IgG1 (antibody, V domains shown, also called v11 (of huE104)) VH: EVQLVESGPGLVKPSETLSLTCTVSRFSLIGYAITWIRQPPGKGLEWIGGISSAATTFYSSWAKSRVTISVDTSKNQVSLKLSSVTAADTAVYYCARDPRGYGAALDRLDLWGQGTLVTVSS VL: DIQMTQSPSSLSASVGDRVTITCQSIKSVYNNRLGWYQQKPGKAPKLLIYETSILTSGVPSRFSGSGSGTDFTLTISSLQPEDFATYYCAGGFDRSGDTTFGQGTKVEIK
0.18	huE104.v5 IgG1 (antibody, V domains shown) VH: EVQLVESGPGLVKPSETLSLTCTVSRFSLIGYAITWIRQPPGKGLEWIGGISSAATTFYSSWAKSRVTISVDTSKNQFSLKLSSVTAADTAVYYCARDPRGYGAALDRLDLWGQGTLVTVSS VL: DAQLTQSPSSLSASVGDRVTITCQSIKSVYNNRLGWYQQKPGKPPKLLIYETSILTSGVPSRFSGSGSETDFTLTISSLQPEDFATYFCAGGFDRSGDTTFGQGTKVEIK
0.14	huE104.v6 IgG1 (antibody, V domains shown) VH: EVQLVESGPGLVKPSETLSLTCTVSRFSLIGYAITWIRQPPGKGLEWIGGISSAATTFYSSWAKSRVTISRDTSKNQVSLKLSSVTAADTAVYYCARDPRGYGAALDRLDLWGQGTLVTVSS VL: DAQLTQSPSSLSASVGDRVTITCQSIKSVYNNRLGWYQQKPGKPPKLLIYETSILTSGVPSRFSGSGSETDFTLTISSLQPEDFATYFCAGGFDRSGDTTFGQGTKVEIK
0.12	huE104.v12 IgG1 (antibody, V domains shown, also called v12 (of huE104)) VH: EVQLVESGPGLVKPSETLSLTCTVSRFSLIGYAITWIRQPPGKGLEWIGGISSAATTFYSSWAKSRVTISRDTSKNQFSLKLSSVTAADTAVYYCARDPRGYGAALDRLDLWGQGTLVTVSS VL: DIQMTQSPSSLSASVGDRVTITCQSIKSVYNNRLGWYQQKPGKAPKLLIYETSILTSGVPSRFSGSGSGTDFTLTISSLQPEDFATYYCAGGFDRSGDTTFGQGTKVEIK
0.24	huE104.v8 IgG1 (antibody, V domains shown) VH: EVQLVESGGGLVQPGGSLRLSCAVSRFSLIGYAITWVRQAPGKGLEWIGGISSAATTFYSSWAKSRSTISRDTSKNTVYLQMNSLRAEDTAVYFCARDPRGYGAALDRLDLWGQGTLVTVSS VL: DAQLTQSPSSLSASVGDRVTITCQSIKSVYNNRLGWYQQKPGKPPKLLIYETSILTSGVPSRFSGSGSETDFTLTISSLQPEDFATYFCAGGFDRSGDTTFGQGTKVEIK
